Data set [1] concerns MS2 coat protein. Briefly: apparent KD of MS2 coat protein; designed switch direction (-1 OFF switch, 1 ON switch): 1; higher = weaker reporter binding. The following applies: Eterna round: R98. As for the experimental part:
(§1)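 RNA-MaP: designed FMN/MS2 RNA switches (84 nt design region) are transcribed on-chip within common flanks and titrated with SNAP-549-labelled MS2 coat protein (about 1-3000 nM) in 100 mM Tris pH 7.5, 80 mM KCl, 4 mM MgCl2, without or with 200 uM FMN. Median apparent KD per design; activation ratio = KD,OFF / KD,ON.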

Data set [2] has as its system MS2 coat protein. Briefly: apparent KD of MS2 coat protein; designed switch direction (-1 OFF switch, 1 ON switch): -1; higher = weaker reporter binding. The following applies: Eterna round: R98. As for the experimental part:
as §1

Data set [3] has as its system MS2 coat protein. Briefly: apparent KD of MS2 coat protein; higher = weaker reporter binding. The following applies: Eterna round: R101. The protocol: as §1

Take “AAAUAAAAUAUAGGAUAUGGAAACAUGAGGAUCACCCAUGUAAGAUAAGAUAAAUAAUGAUAUAGCCAGAAGGAUAAAAUAUAA [LRO005_SS NG 2]”: the “apparent KD of MS2 coat protein” value stood at 32.7 nM in the data set on MS2 coat protein [1] (input ligand: FMN 200 uM) and 28.3 nM with MS2 coat protein [1] (input ligand: none).

Turning to “AAUAAUCAGGUAGGAUAUGCUCAGGAAUACUGAGCAGAAGGACUAGAAACCUGAGGAUCACCCAGGUAACUGGAAUAAUAAUAA [Same State NG1 - A3C, U17G Submission 6A]”, the entries for the “apparent KD of MS2 coat protein” value in the data set on MS2 coat protein [1] (input ligand: FMN 200 uM) and with MS2 coat protein [1] (input ligand: none) were 53.6 nM and 78.3 nM, respectively.

Turning to “AGUUGCAAACAGAACAUGAGGAUCACCCAUGUGCUCUCGUGUAAGGAUAUACAUUCGUAUGGAAAGUAGAAGGUACUAAUUAUG [JR_SSNG3_Sub93]”, the entries for the “apparent KD of MS2 coat protein” value in the data set with MS2 coat protein [1] (input ligand: FMN 200 uM) and in the data set on MS2 coat protein [1] (input ligand: none) were 66.3 nM and 65.1 nM, respectively.

With “AUAUAAAAUAUAGGAUAUGGAAACAUGAGGAUCACCCAUGUAUGAUAAGAUAAAUAAUGAUAUAGCCAGAAGGAUACAAUAUAA [LRO008_SS NG 2]”, the “apparent KD of MS2 coat protein” value in the data set on MS2 coat protein [1] (input ligand: FMN 200 uM) was 47.5 nM; with MS2 coat protein [1] (input ligand: none), 38.2 nM.

In the case of “AUCUAUCGGUCAGGAUAUUCACAUGAGGAUCACCCAUGUGAGCCUCGGCCAAAGUGAACGCAUGUGAAGAAGGGACGGCAAAAC [Atceen]”, the “apparent KD of MS2 coat protein” value in the data set on MS2 coat protein [2] (input ligand: FMN 200 uM) was found to be 33.4 nM; in the data set with MS2 coat protein [2] (input ligand: none), 27.8 nM.

In the case of “AUGAAGAGGCAAGGAUAUCGAGUGCUGGGCCUAUACAUGAGGAUCACCCAUGUCCUGGCAGGACGUGAGAAGGUGUAUCGAAUA [Ussotemaa]”, the figures for the “apparent KD of MS2 coat protein” value in the data set with MS2 coat protein [1] (input ligand: FMN 200 uM) and with MS2 coat protein [1] (input ligand: none) were 455 nM and 244 nM, respectively.

In the case of “CAUAUAUGGUGAGGAUAUGCAGAGGAUCACCCUGUAGAAGGCAUCAGGGUAGAAGGUGCAAGGAUCACCUGUAAGGAUAUAUCC [pwkr2 ssNG1 DX.28]”, the “apparent KD of MS2 coat protein” value in the data set with MS2 coat protein [1] (input ligand: FMN 200 uM) amounted to 979 nM; in the data set on MS2 coat protein [1] (input ligand: none), 864 nM.

Take “CAUGUAUGGUGAGGAUAUGCAAAGGAUCACCUUGUAGAAGGCAUCAGGUAGAAGGUGCAGAGGAUCACCCUGUAAGGAUAUAUC [pwkr2 ssNG1 DX.23]”: the “apparent KD of MS2 coat protein” value worked out at 72 nM in the data set with MS2 coat protein [1] (input ligand: FMN 200 uM) and 249 nM with MS2 coat protein [1] (input ligand: none).

“CCAGAUAUAUGAGGAUAUCGAGUGGAAUACACUCGAGAAGGUAUGUGAAAACAUGAGGAUCACCCAUGUGAUUAAUAAUCUGGA [SameState NG1 #1]”: the “apparent KD of MS2 coat protein” value was determined as 22.4 nM in the data set on MS2 coat protein [1] (input ligand: FMN 200 uM) and 16.8 nM with MS2 coat protein [1] (input ligand: none).

On to “CCGUUGCAAAUAAAACAUGAGGAUCACCCAUGUGAGUCUCAUGAGGAUAUGCAGGUCAAAGACUUGCAGAAGGCAUGGCGACGG [Mat - Same State NG 3 - JL Mod - D67]”, for which the “apparent KD of MS2 coat protein” value was 118 nM with MS2 coat protein [1] (input ligand: FMN 200 uM) and 1520 nM in the data set with MS2 coat protein [1] (input ligand: none).

As for “CGAACCACUUAGGUACCACACAUGAGGAUCACCCAUGUAUCACAGGAUAUGCAUGAUAUAUUCAGGCAGAAGGGUGAUCUUACC [Esananti]”, the “apparent KD of MS2 coat protein” value with MS2 coat protein [1] (input ligand: FMN 200 uM) is 265 nM; in the data set with MS2 coat protein [1] (input ligand: none), 24.7 nM.

Turning to “CUGUGGGCCAUAGGAUAUGCGCAGAAUUAGCAAGCAGAAGGGUGGAUCGGACAAUAAUAACUACAUGAGGAUCACCCAUGUGCU [Lelegeza]”, the “apparent KD of MS2 coat protein” value with MS2 coat protein [1] (input ligand: FMN 200 uM) came out at 55.5 nM; in the data set on MS2 coat protein [1] (input ligand: none), 139 nM.

With “GAAUAAUAGAUCCAAUUUAUCUACAUGAGGAUCACCCAUGUGCAGGAUAUGCUAAAAUUUAAUAAGCAGAAGGGCAAGAACGGC [JR_ExcNG3_Sub016]”, the “apparent KD of MS2 coat protein” value in the data set with MS2 coat protein [2] (input ligand: FMN 200 uM) worked out at 374 nM; in the data set with MS2 coat protein [2] (input ligand: none), 104 nM.

With “GACGAAUUCUUAGGAUAUCGAGUGGAUAACACUCGAGAAGGAAGAUAUACCUGAGGAUCACCCAGGUUAAACUGGACGUCAAUA [Same State NG1 - A3C, U17G Submission 8C]”, the “apparent KD of MS2 coat protein” value turned out to be 53.6 nM in the data set with MS2 coat protein [1] (input ligand: FMN 200 uM) and 205 nM in the data set with MS2 coat protein [1] (input ligand: none).

As to “GACGGAUUCUUAGGAUAUGCUCAGGAUAACUGAGCAGAAGGAAGAAUAACCUGAGGAUCACCCAGGUAAUACUGAACGUCAAUA [Same State NG1 - A3C, U17G Submission 9B]”, the “apparent KD of MS2 coat protein” value with MS2 coat protein [1] (input ligand: FMN 200 uM) stood at 20.7 nM; with MS2 coat protein [1] (input ligand: none) it was 64.1 nM.

Consider “GAGCAGGUAAAUAAACUCAAUUACAUGAGGAUCACCCAUGUAUAGGAUAUCGUCAGGAAUACUGACGAGAAGGAUACAUCCUGC [Exclusion NG 3/14-A2]”, for which the “apparent KD of MS2 coat protein” value was found to be 59.2 nM in the data set with MS2 coat protein [2] (input ligand: FMN 200 uM) and 19.7 nM in the data set on MS2 coat protein [2] (input ligand: none).

On to “GCAGAAGGUGCGGAGGAUCACCCUGUAAGGAUAUGCAUUAGCAAGGAUAUACAGAGGAUCACCCUGUAGAAGGUGCACUUCAAA [pwkr2 ssNG3 DX.6]”, for which the “apparent KD of MS2 coat protein” value is 779 nM with MS2 coat protein [1] (input ligand: FMN 200 uM) and 3160 nM in the data set with MS2 coat protein [1] (input ligand: none).

As for “GCGCGCGCGCGCGCGCGCGCGCACAUGAGGAUCACCCAUGUAUAGGAUAUCGAUUGUUGUUGAUUCGAGAAGGGUAGCGCGCGC [Exclusion NG3]”, the “apparent KD of MS2 coat protein” value with MS2 coat protein [2] (input ligand: FMN 200 uM) was 44.1 nM; in the data set on MS2 coat protein [2] (input ligand: none), 39.4 nM.

For the sequence “GGAGACCUCACAGGAUAUGCUGGACUUUGUCCAGCAGAAGGGUGAACAUGAGGAUCACCCAUGUAGGUCUCCAAAAUAUUUAAU [Denovo 50]”, the results for the “apparent KD of MS2 coat protein” value in the data set on MS2 coat protein [1] (input ligand: FMN 200 uM) and with MS2 coat protein [1] (input ligand: none) were 989 nM and 100 nM, respectively.

Regarding “UAACAGCGAAGAUAAUAAUGAAUACAUGAGGAUCACCCAUGUAAGGAUAUCGUCAGGAAUACUGACGAGAAGGUACAUACGCUG [Exclusion NG 3/17-B2]”, the “apparent KD of MS2 coat protein” value in the data set with MS2 coat protein [2] (input ligand: FMN 200 uM) was found to be 23.2 nM; in the data set on MS2 coat protein [2] (input ligand: none) it was 16.7 nM.

On to “UAUAACGAAAGAGGAUAUAUCGGCCGUCUACGGAUAGAAGGCUUUCGCUAUGGCACUGAUGAUCUACAUGAGGAUCACCCAUGU [EternaBot731] (puzzle (switch architecture): Exclusion NG 1)”, for which the “apparent KD of MS2 coat protein” value in the data set with MS2 coat protein [3] (input ligand: FMN 200 uM) worked out at 7.18 nM.

On to “UAUUCUUUGUUAGGAUAUGGGCCCACCCACCCACAAAGUGGGUGGGUGGGCCCAGAAGGAACAUGAGGAUCACCCAUGUAGGAA [#Aaaddddeeeeeeennnniiiinneeeee!] (puzzle (switch architecture): Small Loop Exclusion NG 1)”, for which the “apparent KD of MS2 coat protein” value was 53.1 nM in the data set on MS2 coat protein [3] (input ligand: FMN 200 uM) and 11.7 nM in the data set with MS2 coat protein [3] (input ligand: none).

Take “UAUUCUUUGUUAGGAUAUGGGCCCACCCACCCACAAAGUGGGUGGGUGGGCCCAGAAGGAACAUGAGGAUCACCCAUGUAGGCC [#Aaaddddeeeeeeennnniiiinneeeee!] (puzzle (switch architecture): Small Loop Exclusion NG 1)”: the “apparent KD of MS2 coat protein” value in the data set on MS2 coat protein [3] (input ligand: FMN 200 uM) was found to be 88.5 nM; with MS2 coat protein [3] (input ligand: none), 6.16 nM.

On to “UCACUCACGUUAGGAUAUGGAUCGGAAAACGAUCCAGAAGGAACCUGCAAACAAGAGGAUCACCCUUGUUCCAAUAACGAGUGA [SameSame 6 - Jieux - Same State NG 1]”, for which the results for the “apparent KD of MS2 coat protein” value with MS2 coat protein [1] (input ligand: FMN 200 uM) and in the data set with MS2 coat protein [1] (input ligand: none) were 40.9 nM and 51.2 nM, respectively.

For the sequence “UUAUUAUAUGUAGGAUAUGCAUAUUAUUACUGUGCAGAAGGACAUGAGGAUCACCCAUGUAUAUUAUUAUUAUAUAUUAUAUAU (puzzle (switch architecture): Exclusion NG 1)”, the results for the “apparent KD of MS2 coat protein” value in the data set on MS2 coat protein [3] (input ligand: FMN 200 uM) and in the data set with MS2 coat protein [3] (input ligand: none) were 20.6 nM and 17.2 nM, respectively.
